# Assay results taken from US20220073608A1 (JIANGSU HUAIYU PHARMACEUTICAL, published 2022).
# Positions count from the first letter of the chain named.
# T1: human SEMA4D, full length, on CHO-K1 cells (CHO-K1 hSEMA4D) (human, UniProt Q92854 22-862)
# T1 construct: whole, on cells; also called human SEMA4D recombinant cells
# T1 sequence (looked up): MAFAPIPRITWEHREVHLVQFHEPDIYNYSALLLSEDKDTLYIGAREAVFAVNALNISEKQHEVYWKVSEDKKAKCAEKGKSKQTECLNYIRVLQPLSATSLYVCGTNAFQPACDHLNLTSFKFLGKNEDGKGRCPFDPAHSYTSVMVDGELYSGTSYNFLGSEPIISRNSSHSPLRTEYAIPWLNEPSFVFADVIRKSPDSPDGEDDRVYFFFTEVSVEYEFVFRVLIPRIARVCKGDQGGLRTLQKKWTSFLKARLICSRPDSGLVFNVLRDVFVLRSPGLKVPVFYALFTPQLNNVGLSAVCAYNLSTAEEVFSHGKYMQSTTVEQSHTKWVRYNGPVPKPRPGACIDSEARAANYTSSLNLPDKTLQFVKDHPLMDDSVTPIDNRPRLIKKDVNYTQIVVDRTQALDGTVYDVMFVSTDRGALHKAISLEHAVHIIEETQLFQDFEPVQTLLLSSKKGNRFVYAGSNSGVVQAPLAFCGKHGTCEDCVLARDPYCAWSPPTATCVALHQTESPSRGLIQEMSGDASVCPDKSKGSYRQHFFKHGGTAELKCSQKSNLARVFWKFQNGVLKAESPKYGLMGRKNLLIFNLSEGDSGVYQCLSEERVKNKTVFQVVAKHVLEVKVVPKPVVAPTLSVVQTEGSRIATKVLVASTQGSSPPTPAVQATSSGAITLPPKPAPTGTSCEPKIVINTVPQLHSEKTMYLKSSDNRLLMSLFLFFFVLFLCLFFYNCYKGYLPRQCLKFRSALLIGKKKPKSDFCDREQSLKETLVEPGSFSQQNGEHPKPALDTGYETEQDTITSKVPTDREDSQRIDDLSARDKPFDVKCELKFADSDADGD
# T2: hSEMA4D ECD-His (His-tagged human SEMA4D protein extracellular domain, Met22-Arg734) (human, UniProt Q92854 22-734)
# T2 construct: Expressed in CHO-S cells, purified on Ni column; also called protein immunogen; immunogen A; not shown: His tag of the pCP vector
# T2 sequence: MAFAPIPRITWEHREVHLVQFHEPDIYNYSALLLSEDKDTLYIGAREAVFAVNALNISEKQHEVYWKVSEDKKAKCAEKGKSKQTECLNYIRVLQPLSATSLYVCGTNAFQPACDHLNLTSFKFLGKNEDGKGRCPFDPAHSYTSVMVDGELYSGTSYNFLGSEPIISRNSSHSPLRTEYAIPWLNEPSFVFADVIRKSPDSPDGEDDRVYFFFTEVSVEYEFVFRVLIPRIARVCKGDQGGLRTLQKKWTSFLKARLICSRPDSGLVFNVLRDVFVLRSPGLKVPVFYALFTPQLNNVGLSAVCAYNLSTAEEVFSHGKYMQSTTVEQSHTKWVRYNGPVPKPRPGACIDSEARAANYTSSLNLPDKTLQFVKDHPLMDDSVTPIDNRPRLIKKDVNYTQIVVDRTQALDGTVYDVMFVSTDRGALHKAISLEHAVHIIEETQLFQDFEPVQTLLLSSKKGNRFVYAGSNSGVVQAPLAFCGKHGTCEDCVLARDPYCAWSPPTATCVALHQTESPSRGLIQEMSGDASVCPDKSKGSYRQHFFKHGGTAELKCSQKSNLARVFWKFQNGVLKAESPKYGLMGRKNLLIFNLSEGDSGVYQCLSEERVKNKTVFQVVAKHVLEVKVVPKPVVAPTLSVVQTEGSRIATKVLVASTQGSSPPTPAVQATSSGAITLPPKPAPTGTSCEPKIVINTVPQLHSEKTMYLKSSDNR
# B1: 42B7G2 (antibody, V domains shown)
# VH: QVQLQQSGAELARPGASVKLSCKASGYTFTDYGISWVKQRTGQGLEWIGEIYLRNDNSYYNEKFKGKATLTADKSSNTAYMELRSLTSEDSAVYFCARWGDHGNNYEDAMDYWGQGTSVTVSS
# VL: DIVLTQSPASLAMSLGKRATISCRASESVSIIGSNLIHWYQQKPGQPPKLLIYHASNLETGVPARFSGSGSRTDFTLTIDPVEEDDVAIYYCLQSRKVPYTFGGGTKLEIK
# notes: Mouse monoclonal antibody purified from hybridoma supernatant on protein A
# B2: 37F11F9 (antibody, V domains shown)
# VH: EVQLQQSGPVLVKPGASVKMSCKASGYTFTDYYMNWVKQSHGKSLEWIGLINPYSGGSTFNQKFKAKATLTVDKSSSSAYMDLNSLTSEDSAVYYCARVGDGYYGVTHGMDYWGQGTSVTVSS
# VL: DIVMTPSQKFMSTTVGDRVSITCKASQNVGTAVAWYQQKPGQSPTILIYSASNRYTGVPDRFTGSGSGTDFTLTISNMKSEDLADYFCQQYYIYPFTFAAGTKLELK
# notes: as for B1
# B3: 37C4F7 (antibody, V domains shown)
# VH: EFQLQQSGPEVVKPGASVKISCKASGYSFTDYNMNWMKQSKGKSLEWIGVINPNYGTTTYNQNFKGKATLTVDQSSSTAYMQLNSLTSEDSAVYYCARDMYYVYAYYTMDYWGQGTSVTVSS
# VL: DVVMTQTPLSLPVSLGDQASISCRSSQSLVHSNGHTYLHWYLQRPGQSPTLLIYKVSNRFSGVPDRFSGSGSGTDFTLKISRVEAEDLGVYFCSQGTHVPWTFGGGTKLEIK
# notes: as for B1
# B4: 38H2E3 (antibody, V domains shown)
# VH: B3 VH with N52S, N54D, G66D, R98K, Q114H
# VL: B3 VL with F67V, W101R
# notes: as for B1
# B5: 32C8F10 (antibody, V domains shown)
# VH: EVQLQQSGAELVRPGASVKLSCTASGFNIKDEYIHWVKQRPEQGLEWIGWIDPANGHTEYASRFQAKATITADTSSNTAYLQLSSLTSEDTAVYYCTTGDYDGFAYWGQGTLVTVST
# VL: QIVLTQSPAIMSASPGEKVTISCSARSSVSYMYWYQQKPGSSPKPWIYRTSNLASGVPARFSGSGSGTSYSLTISSMEAEDAATYYCQHYHTYPYTFGGGTKLEIK
# notes: as for B1
# B6: 31C11G2 (antibody, V domains shown)
# VH: B5 VH with A105V
# VL: B5 VL with S22F
# notes: as for B1
# B7: 31G10C5 (antibody, V domains shown)
# VH: B5 VH with E32D, T58I, R63N, A105T
# VL: B5 VL
# notes: as for B1
# Target: T1, human SEMA4D, full length, on CHO-K1 …
# Experiment: FACS, CHO-K1 hSEMA4D cells; Ab 0.107 nM
# Protocol: The medium was aspirated, the cells were washed once with PBS buffer (purchased from Invitrogen), and then treated with cell dissociation fluid (TrypLE™ Express Enzyme, purchased from Life technology), and the cells were collected. After the cells counted, the cells were washed once with PBS phosphate buffer, and diluted to 3×10⁶ cells per milliliter, and added to the 96-well FACS reaction plate as 100 μL per well. 2% (w/w) fetal calf serum was added to PBS phosphate buffer as FACS buffer, with which the cells were washed once by centrifugation at 2000 rpm 4° C. 100 μL of diluted and purified leading antibodies was added to each well and the plate was incubated for 1 hour on ice. […] Cells were washed 2 times by centrifugation with FACS buffer. The cells were suspended with 200 μL of FACS buffer, and FACS (FACS Verse, purchased from BD) was used to detect and analyze the results.
row,MFI,Binder
1,598,B1
2,308,B2
3,210,B3
4,215,B4
5,832,B5
6,906,B6
7,855,B7

# Target: T3, monkey SEMA4D, full length, on CHO-K1 cells (CHO-K1 cSEMA4D) (monkey)
# T3 construct: whole, on cells; also called monkey SEMA4D recombinant cells
# Experiment: FACS, CHO-K1 cSEMA4D cells; Ab 0.00427 nM
# Protocol: After the cells were counted, they were diluted with PBS to 2×10⁶ cells per milliliter. After washing, 100 μL of diluted and purified leading antibodies was added to each well and the plate was incubated for 1 hour on ice. […] Cells were washed 2 times by centrifugation with FACS buffer. The cells were suspended with 200 μL of FACS buffer, FACS (FACS Verse, purchased from BD) was used to detect and analyze the results.
row,MFI,Binder
1,92.7,B1
2,45.4,B2
3,38.2,B3
4,35,B4
5,97.6,B5
6,139,B6
7,152,B7

# Target: T2, hSEMA4D ECD-His (His-tagged human …)
# Experiment: ELISA, coated hSEMA4D ECD-His; Ab 0.0107 nM
# Protocol: (§1) First, hSEMA4D ECD-His was diluted with PBS to a final concentration of 1.0 μg/mL, and then was added to a 96-well ELISA plate, 100 μL per well, sealed with plastic film and incubated overnight at 4° C. On the next day, the plate was washed with a plate washing solution, that is, PBS buffer containing 0.05% (v/v) Tween20, for 4 times, and added with blocking solution, that is, PBS buffer containing 0.05% (v/v) Tween20 and 2% (w/w) BSA, blocked at 37° C. for 1 hour. The blocking solution was poured out and the plate was washed 4 times with the plate washing solution. 100 μL of the purified leading antibodies obtained in Examples 1 and 2 was added to each well. After incubation at 37° C. for 1 hour, the plate was washed 4 times with a plate washing solution. 100 μL of horseradish peroxidase (HRP) labeled secondary antibody (purchased from Sigma) was added at a dilution of 1:10000 to each well, and the plate was incubated at 37° C. for 1 hour, and washed 4 times with a plate washing solution. 100 μL TMB substrate was added to each well, and the plate was incubated at room temperature for 5 minutes, and added with 100 μL stop solution (1.0N HCl) to each well. A microplate reader (SpectraMax M5e, purchased from Molecular Device) was used to read the A450 nm value. […] Wherein, the data in the table was the OD450 nm value.
row,OD450 nm,Binder
1,0.25,B1
2,0.131,B2
3,0.0864,B3
4,0.0878,B4
5,0.207,B5
6,0.337,B6
7,0.197,B7

# Target: T2, hSEMA4D ECD-His (His-tagged human …)
# Experiment: ELISA, coated hSEMA4D ECD-His; Ab 0.0533 nM
# Protocol: as §1
row,OD450 nm,Binder
1,0.696,B1
2,0.365,B2
3,0.162,B3
4,0.194,B4
5,0.551,B5
6,0.817,B6
7,0.526,B7
